This data set has as its target T1, Act1 SEFIR (wild type) (UniProt Q8N7N6 390-531).
T1 sequence: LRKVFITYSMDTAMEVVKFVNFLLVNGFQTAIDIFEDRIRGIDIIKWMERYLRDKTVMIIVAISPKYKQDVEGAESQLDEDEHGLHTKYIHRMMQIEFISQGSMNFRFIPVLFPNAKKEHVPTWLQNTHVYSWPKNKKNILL
Put plainly: competition.

B1: Hif1α aptamer (SBE) (structured_RNA)
RNA: UAAUGCUCUUUUUAAUAUGUUCUUUUAAUGCCAGAUCACAGCACAUUCACAGCU
modifications: chemically modified RNA oligo (modification not specified)
As for B1, the binding result is “binds”.

The values above are taken from paper PMC8996325.
